This data set has as its target T1, Abz-GGFLRKHGQ-EDDnp.
T1 chain: GGFLRKHGQ

In general, Hill coefficient refers to a measure of the steepness of the concentration-response curve. The term Vmax denotes the top rate of the reaction or transport when substrate is in excess. For orientation: kcat means the number of substrate molecules converted per active site and unit of time at saturation.

B1: wild type rat IDE, Example 1 (protein)
chain: TMNNPAIQRIEDHIVKSPEDKREYRGLELANGIKVLLISDPTTDKSSAALDVHIGSLSDPPNIPGLSHFCFHMLFLGTKKYPKENEYSQFLSEHAGSSNAFTSGEHTNYYFDVSHEHLEGALDRFAQFFLCPLFDASCKDREVNAVDSEHEKNVMNDAWRLFQLEKATGNPKHPFSKFGTGNKYTLETRPNQEGIDVREELLKFHSTYYSSNLMAICVLGRESLDDLTNLVVKLFSEVENKNVPLPEFPEHPFQEEHLKQLYKIVPIKDIRNLYVTFPIPDLQQYYKSNPGHYLGHLIGHEGPGSLLSELKSKGWVNTLVGGQKEGARGFMFFIINVDLTEEGLLHVEDIILHMFQYIQKLRAEGPQEWVFQECKDLNAVAFRFKDKERPRGYTSKIAGKLHYYPLNGVLTAEYLLEEFRPDLIDMVLDKLRPENVRVAIVSKSFEGKTDRTEQWYGTQYKQEAIPEDVIQKWQNADLNGKFKLPTKNEFIPTNFEILALEKDATPYPALIKDTAMSKLWFKQDDKFFLPKACLNFEFFSPFAYVDPLHCNMAYLYLELLKDSLNEYAYAAELAGLSYDLQNTIYGMYLSVKGYNDKQPILLKKITEKMATFEIDKKRFEIIKEAYMRSLNNFRAEQPHQHAMYYLRLLMTEVAWTKDELKEALDDVTLPRLKAFIPQLLSRLHIEALLHGNITKQAALGVMQMVEDTLIEHAHTKPLLPSQLVRYREVQLPDRGWFVYQRRNEVHNNCGIEIYYQTDMQSTSENMFLELFCQIISEPCFNTLRTKEQLGYIVFSGPRRANGIQGLRFIIQSEKPPHYLESRVEAFLITMEKAIEDMTEEAFQKHIQALAIRRLDKPKKLSAECAKYWGEIISQQYNYDRDNIEVAYLKTLSKDDIIKFYKEMLAVDAPRRHKVSVHVLAREMDSCPVVGEFPSQNDINLSEAPPLPQPEVIHNMTEFKRGLPLFPLVKPHINFMAAKL
On to B1, for which the Hill coefficient is 2.1, the Vmax turned out to be 47.2 nmol/min/mg and the kcat was found to be 0.0867 s⁻¹.

B2: IDE^R429S (protein)
chain: TMNNPAIQRIEDHIVKSPEDKREYRGLELANGIKVLLISDPTTDKSSAALDVHIGSLSDPPNIPGLSHFCEHMLFLGTKKYPKENEYSQFLSEHAGSSNAFTSGEHTNYYFDVSHEHLEGALDRFAQFFLCPLFDASCKDREVNAVDSEHEKNVMNDAWRLFQLEKATGNPKHPFSKFGTGNKYTLETRPNQEGIDVREELLKFHSTYYSSNLMAICVLGRESLDDLTNLVVKLFSEVENKNVPLPEFPEHPFQEEHLKQLYKIVPIKDIRNLYVTFPIPDLQQYYKSNPGHYLGHLIGHEGPGSLLSELKSKGWVNTLVGGQKEGARGFMFFIINVDLTEEGLLHVEDIILHMFQYIQKLRAEGPQEWVFQECKDLNAVAFRFKDKESPRGYTSKIAGKLHYYPLNGVLTAEYLLEEFRPDLIDMVLDKLRPENVRVAIVSKSFEGKTDRTEQWYGTQYKQEAIPEDVIQKWQNADLNGKFKLPTKNEFIPTNFEILALEKDATPYPALIKDTAMSKLWFKQDDKFFLPKACLNFEFFSPFAYVDPLHCNMAYLYLELLKDSLNEYAYAAELAGLSYDLQNTIYGMYLSVKGYNDKQPILLKKITEKMATFEIDKKRFEIIKEAYMRSLNNFRAEQPHQHAMYYLRLLMTEVAWTKDELKEALDDVTLPRLKAFIPQLLSRLHIEALLHGNITKQAALGVMQMVEDTLIEHAHTKPLLPSQLVRYREVQLPDRGWFVYQRRNEVHNNCGIEIYYQTDMQSTSENMFLELFCQIISEPCFNTLRTKEQLGYIVFSGPRRANGIQGLRFIIQSEKPPHYLESRVEAFLITMEKAIEDMTEEAFQKHIQALAIRRLDKPKKLSAECAKYWGEIISQQYNYDRDNIEVAYLKTLSKDDIIKFYKEMLAVDAPRRHKVSVHVLAREMDSCPVVGEFPSQNDINLSEAPPLPQPEVIHNMTEFKRGLPLFPLVKPHINFMAAKL
Consider B2, for which the Hill coefficient worked out at 1.7, the Vmax turned out to be 42.3 nmol/min/mg and the kcat came out at 0.0783 s⁻¹.

These data come from patent US8632989B1, “Mutant insulin degrading enzyme and methods of use” (University of Kentucky Research Foundation, priority 2011, dated 2014).
